Reference: patent publication US20040038876A1 (published 2004)

T1: Shh receptor molecules on C3H10T1/2 cells (UniProt Q61115 1-1434)
T1 sequence (looked up): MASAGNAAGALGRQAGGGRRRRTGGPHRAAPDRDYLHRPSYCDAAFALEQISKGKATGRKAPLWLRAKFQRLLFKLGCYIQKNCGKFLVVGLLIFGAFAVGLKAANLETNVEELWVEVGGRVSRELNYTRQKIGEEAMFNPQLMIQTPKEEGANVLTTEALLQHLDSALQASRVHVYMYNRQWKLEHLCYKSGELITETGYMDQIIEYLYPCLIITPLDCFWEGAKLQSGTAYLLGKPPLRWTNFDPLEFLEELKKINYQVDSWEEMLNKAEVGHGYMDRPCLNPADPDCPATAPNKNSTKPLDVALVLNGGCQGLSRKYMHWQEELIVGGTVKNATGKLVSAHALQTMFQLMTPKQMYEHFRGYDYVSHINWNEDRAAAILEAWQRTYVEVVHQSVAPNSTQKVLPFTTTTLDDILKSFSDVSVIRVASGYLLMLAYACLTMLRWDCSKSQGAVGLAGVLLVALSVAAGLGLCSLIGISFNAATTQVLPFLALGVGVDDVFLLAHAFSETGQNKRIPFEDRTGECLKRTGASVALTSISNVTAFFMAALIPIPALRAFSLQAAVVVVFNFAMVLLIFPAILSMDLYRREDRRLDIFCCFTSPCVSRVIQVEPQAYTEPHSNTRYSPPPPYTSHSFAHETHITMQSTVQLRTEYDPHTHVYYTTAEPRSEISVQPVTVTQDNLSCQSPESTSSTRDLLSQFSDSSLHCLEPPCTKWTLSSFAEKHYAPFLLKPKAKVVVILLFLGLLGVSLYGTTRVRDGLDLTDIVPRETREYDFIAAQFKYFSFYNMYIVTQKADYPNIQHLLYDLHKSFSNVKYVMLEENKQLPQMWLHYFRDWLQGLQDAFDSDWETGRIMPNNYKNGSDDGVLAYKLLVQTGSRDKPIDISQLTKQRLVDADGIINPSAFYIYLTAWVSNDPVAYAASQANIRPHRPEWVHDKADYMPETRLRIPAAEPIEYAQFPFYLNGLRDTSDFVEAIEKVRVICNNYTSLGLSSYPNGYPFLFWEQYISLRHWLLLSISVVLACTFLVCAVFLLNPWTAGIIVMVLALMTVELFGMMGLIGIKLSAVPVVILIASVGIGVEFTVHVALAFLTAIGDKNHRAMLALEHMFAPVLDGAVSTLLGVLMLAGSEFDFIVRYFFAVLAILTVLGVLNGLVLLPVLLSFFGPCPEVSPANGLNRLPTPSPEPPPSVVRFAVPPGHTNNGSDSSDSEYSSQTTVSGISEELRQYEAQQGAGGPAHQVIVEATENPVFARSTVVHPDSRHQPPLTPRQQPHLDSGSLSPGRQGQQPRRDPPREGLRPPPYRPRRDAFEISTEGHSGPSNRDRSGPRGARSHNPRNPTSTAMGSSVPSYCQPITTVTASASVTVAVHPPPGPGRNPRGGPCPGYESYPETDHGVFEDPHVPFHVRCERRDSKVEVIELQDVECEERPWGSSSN

B1: mutant 25 (Shh C1II/A169C + S133C), HPE-modified (ligand)
chain: not shown
modifications: beta-(4-hydroxyphenyl) ethylmaleimide on thiol of Cys133, Cys169
B2: mutant 21 (Shh C1II/A169C + N92C), 5 K PEG (ligand)
chain: not shown
modifications: 5 K PEG maleimide on thiol of Cys92, Cys169
B3: mutant 17 (Shh C1II/A169C + N27C), 20 K PEG (ligand)
chain: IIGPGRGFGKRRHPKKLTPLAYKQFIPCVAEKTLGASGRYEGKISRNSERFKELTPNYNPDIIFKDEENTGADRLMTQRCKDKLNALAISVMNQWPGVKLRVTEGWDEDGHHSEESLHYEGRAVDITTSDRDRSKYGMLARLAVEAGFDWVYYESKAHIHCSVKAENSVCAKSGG
modifications: 20 K PEG maleimide on thiol of Cys27, Cys169
B4: mutant 18 (Shh C1II/A169C + N46C), Pyrene-modified (ligand)
chain: not shown
modifications: N-(1-pyrenyl) maleimide on thiol of Cys46, Cys169
B5: mutant 24 (Shh C1II/A169C + S112C), Pyrene-modified (ligand)
chain: not shown
modifications: N-(1-pyrenyl) maleimide on thiol of Cys112, Cys169
B6: mutant 22 (Shh C1II/A169C + S154C), 5 K PEG (ligand)
chain: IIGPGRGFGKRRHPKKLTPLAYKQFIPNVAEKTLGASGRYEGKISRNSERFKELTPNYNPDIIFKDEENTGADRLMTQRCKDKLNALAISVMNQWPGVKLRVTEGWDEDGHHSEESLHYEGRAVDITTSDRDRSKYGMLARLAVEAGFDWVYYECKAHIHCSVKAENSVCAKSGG
modifications: 5 K PEG maleimide on thiol of Cys154, Cys169
B7: mutant 17 (Shh C1II/A169C + N27C), HPE-modified (ligand)
chain: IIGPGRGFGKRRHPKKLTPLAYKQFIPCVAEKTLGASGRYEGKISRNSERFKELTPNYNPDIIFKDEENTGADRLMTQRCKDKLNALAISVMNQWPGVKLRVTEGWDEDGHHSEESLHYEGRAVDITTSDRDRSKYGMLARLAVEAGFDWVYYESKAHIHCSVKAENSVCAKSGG
modifications: beta-(4-hydroxyphenyl) ethylmaleimide on thiol of Cys27, Cys169
B8: mutant 22 (Shh C1II/A169C + S154C), HPE-modified (ligand)
chain: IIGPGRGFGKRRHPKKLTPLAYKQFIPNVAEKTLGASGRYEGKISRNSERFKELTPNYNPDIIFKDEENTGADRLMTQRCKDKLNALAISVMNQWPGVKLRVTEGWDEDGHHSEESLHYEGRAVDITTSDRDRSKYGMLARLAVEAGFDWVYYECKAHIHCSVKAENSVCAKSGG
modifications: beta-(4-hydroxyphenyl) ethylmaleimide on thiol of Cys154, Cys169
B9: mutant 25 (Shh C1II/A169C + S133C), Pyrene-modified (ligand)
chain: not shown
modifications: N-(1-pyrenyl) maleimide on thiol of Cys133, Cys169
B10: mutant 18 (Shh C1II/A169C + N46C), HPE-modified (ligand)
chain: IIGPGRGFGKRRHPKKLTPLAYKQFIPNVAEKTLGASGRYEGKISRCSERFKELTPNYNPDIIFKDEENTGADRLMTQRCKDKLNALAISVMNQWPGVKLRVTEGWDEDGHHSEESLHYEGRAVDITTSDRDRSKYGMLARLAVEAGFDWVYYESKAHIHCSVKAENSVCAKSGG
modifications: beta-(4-hydroxyphenyl) ethylmaleimide on thiol of Cys46, Cys169
B11: mutant 20 (Shh C1II/A169C + N68C), Napth-modified (ligand)
chain: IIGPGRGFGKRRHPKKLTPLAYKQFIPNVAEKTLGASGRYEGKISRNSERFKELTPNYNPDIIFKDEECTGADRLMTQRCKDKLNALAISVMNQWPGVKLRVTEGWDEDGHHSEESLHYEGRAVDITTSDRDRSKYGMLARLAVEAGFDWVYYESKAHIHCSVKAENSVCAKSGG
modifications: N-(1-naphthyl) maleimide on thiol of Cys68, Cys169
B12: mutant 22 (Shh C1II/A169C + S154C), unmodified (ligand)
chain: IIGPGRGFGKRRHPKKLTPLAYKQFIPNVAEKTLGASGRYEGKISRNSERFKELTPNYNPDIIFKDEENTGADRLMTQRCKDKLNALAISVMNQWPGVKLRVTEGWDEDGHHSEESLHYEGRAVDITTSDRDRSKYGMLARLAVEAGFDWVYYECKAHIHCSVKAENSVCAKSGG
B13: mutant 18 (Shh C1II/A169C + N46C), 5 K PEG (ligand)
chain: not shown
modifications: 5 K PEG maleimide on thiol of Cys46, Cys169
B14: mutant 17 (Shh C1II/A169C + N27C), Napth-modified (ligand)
chain: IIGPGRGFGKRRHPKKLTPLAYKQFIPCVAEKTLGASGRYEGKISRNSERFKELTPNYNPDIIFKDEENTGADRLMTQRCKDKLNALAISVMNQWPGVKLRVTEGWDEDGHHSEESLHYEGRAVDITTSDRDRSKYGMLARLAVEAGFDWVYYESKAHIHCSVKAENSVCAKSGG
modifications: N-(1-naphthyl) maleimide on thiol of Cys27, Cys169
B15: mutant 24 (Shh C1II/A169C + S112C), 20 K PEG (ligand)
chain: not shown
modifications: 20 K PEG maleimide on thiol of Cys112, Cys169
B16: mutant 17 (Shh C1II/A169C + N27C), NEM-modified (ligand)
chain: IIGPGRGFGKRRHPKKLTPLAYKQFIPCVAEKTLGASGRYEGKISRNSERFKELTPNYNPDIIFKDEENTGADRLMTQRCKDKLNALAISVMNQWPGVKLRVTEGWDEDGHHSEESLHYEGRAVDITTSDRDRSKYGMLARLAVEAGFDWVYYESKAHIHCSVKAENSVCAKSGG
modifications: N-ethyl maleimide on thiol of Cys27, Cys169
B17: mutant 21 (Shh C1II/A169C + N92C), 20 K PEG (ligand)
chain: not shown
modifications: 20 K PEG maleimide on thiol of Cys92, Cys169
B18: mutant 25 (Shh C1II/A169C + S133C), Napth-modified (ligand)
chain: not shown
modifications: N-(1-naphthyl) maleimide on thiol of Cys133, Cys169
B19: mutant 17 (Shh C1II/A169C + N27C), Pyrene-modified (ligand)
chain: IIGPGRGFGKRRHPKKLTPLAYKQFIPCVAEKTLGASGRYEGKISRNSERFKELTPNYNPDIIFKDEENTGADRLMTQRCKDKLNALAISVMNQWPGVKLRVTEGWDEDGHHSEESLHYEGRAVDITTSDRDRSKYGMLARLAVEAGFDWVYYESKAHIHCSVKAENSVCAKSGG
modifications: N-(1-pyrenyl) maleimide on thiol of Cys27, Cys169
B20: mutant 17 (Shh C1II/A169C + N27C), unmodified (ligand)
chain: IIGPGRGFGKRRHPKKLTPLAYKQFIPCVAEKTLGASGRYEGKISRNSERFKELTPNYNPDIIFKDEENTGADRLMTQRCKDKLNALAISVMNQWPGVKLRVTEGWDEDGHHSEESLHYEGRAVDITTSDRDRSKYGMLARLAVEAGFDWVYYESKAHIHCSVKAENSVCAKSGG
B21: mutant 24 (Shh C1II/A169C + S112C), Napth-modified (ligand)
chain: not shown
modifications: N-(1-naphthyl) maleimide on thiol of Cys112, Cys169
B22: mutant 20 (Shh C1II/A169C + N68C), NEM-modified (ligand)
chain: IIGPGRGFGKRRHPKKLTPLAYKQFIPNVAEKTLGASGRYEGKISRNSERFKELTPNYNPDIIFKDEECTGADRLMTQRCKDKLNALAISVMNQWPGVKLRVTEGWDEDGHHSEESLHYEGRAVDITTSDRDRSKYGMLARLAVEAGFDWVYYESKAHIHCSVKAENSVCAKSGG
modifications: N-ethyl maleimide on thiol of Cys68, Cys169
B23: mutant 20 (Shh C1II/A169C + N68C), Pyrene-modified (ligand)
chain: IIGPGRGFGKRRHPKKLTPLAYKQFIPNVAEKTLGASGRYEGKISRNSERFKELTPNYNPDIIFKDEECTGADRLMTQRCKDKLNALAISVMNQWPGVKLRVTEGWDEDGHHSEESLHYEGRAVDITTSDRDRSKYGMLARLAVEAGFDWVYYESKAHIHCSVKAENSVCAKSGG
modifications: N-(1-pyrenyl) maleimide on thiol of Cys68, Cys169
B24: mutant 18 (Shh C1II/A169C + N46C), unmodified (ligand)
chain: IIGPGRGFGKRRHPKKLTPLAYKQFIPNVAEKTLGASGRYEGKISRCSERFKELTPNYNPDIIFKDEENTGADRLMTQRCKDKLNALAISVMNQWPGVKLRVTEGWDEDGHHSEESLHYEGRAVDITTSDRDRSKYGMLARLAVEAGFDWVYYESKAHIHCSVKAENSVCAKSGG
B25: mutant 24 (Shh C1II/A169C + S112C), HPE-modified (ligand)
chain: not shown
modifications: beta-(4-hydroxyphenyl) ethylmaleimide on thiol of Cys112, Cys169
B26: mutant 20 (Shh C1II/A169C + N68C), 5 K PEG (ligand)
chain: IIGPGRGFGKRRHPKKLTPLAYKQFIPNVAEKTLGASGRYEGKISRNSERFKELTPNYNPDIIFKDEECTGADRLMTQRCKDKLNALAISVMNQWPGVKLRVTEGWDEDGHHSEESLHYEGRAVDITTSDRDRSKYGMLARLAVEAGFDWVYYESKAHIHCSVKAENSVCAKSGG
modifications: 5 K PEG maleimide on thiol of Cys68, Cys169
B27: mutant 19 (Shh C1II/A169C + Y57C), Napth-modified (ligand)
chain: not shown
modifications: N-(1-naphthyl) maleimide on thiol of Cys57, Cys169
B28: mutant 22 (Shh C1II/A169C + S154C), Pyrene-modified (ligand)
chain: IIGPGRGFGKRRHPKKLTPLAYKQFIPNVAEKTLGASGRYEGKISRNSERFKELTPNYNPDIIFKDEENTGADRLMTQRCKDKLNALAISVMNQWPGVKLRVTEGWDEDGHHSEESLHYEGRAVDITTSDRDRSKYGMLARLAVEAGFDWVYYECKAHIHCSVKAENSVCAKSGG
modifications: N-(1-pyrenyl) maleimide on thiol of Cys154, Cys169
B29: mutant 25 (Shh C1II/A169C + S133C), 5 K PEG (ligand)
chain: not shown
modifications: 5 K PEG maleimide on thiol of Cys133, Cys169
B30: mutant 23 (Shh C1II/A169C + K82C), unmodified (ligand)
chain: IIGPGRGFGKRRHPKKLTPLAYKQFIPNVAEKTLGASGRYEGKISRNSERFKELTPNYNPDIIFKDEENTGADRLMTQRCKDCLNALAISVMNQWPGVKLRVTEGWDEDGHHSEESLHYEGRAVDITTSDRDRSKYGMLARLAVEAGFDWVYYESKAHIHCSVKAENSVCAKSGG
B31: mutant 19 (Shh C1II/A169C + Y57C), unmodified (ligand)
chain: not shown
B32: mutant 21 (Shh C1II/A169C + N92C), unmodified (ligand)
chain: not shown
B33: mutant 22 (Shh C1II/A169C + S154C), Napth-modified (ligand)
chain: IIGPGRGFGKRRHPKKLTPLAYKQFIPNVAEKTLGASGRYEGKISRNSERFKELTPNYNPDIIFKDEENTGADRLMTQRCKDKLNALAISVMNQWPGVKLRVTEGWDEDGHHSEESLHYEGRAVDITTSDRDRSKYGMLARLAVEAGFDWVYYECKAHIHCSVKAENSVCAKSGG
modifications: N-(1-naphthyl) maleimide on thiol of Cys154, Cys169
B34: mutant 22 (Shh C1II/A169C + S154C), 20 K PEG (ligand)
chain: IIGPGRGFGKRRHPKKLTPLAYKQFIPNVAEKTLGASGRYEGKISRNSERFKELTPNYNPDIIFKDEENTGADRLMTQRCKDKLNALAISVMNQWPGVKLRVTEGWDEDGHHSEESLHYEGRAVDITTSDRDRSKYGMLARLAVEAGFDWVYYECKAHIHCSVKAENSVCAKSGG
modifications: 20 K PEG maleimide on thiol of Cys154, Cys169
B35: mutant 21 (Shh C1II/A169C + N92C), HPE-modified (ligand)
chain: not shown
modifications: beta-(4-hydroxyphenyl) ethylmaleimide on thiol of Cys92, Cys169
B36: mutant 20 (Shh C1II/A169C + N68C), HPE-modified (ligand)
chain: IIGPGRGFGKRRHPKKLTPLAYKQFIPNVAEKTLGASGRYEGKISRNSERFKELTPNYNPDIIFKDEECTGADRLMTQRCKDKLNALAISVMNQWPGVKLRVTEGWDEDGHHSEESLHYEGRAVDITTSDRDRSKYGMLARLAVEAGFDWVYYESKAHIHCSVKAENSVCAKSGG
modifications: beta-(4-hydroxyphenyl) ethylmaleimide on thiol of Cys68, Cys169
B37: mutant 22 (Shh C1II/A169C + S154C), NEM-modified (ligand)
chain: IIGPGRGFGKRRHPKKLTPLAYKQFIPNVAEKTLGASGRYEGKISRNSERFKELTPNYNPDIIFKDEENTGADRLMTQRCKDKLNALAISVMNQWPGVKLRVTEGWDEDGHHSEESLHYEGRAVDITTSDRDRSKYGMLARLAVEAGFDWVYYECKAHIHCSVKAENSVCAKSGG
modifications: N-ethyl maleimide on thiol of Cys154, Cys169
B38: mutant 21 (Shh C1II/A169C + N92C), Napth-modified (ligand)
chain: not shown
modifications: N-(1-naphthyl) maleimide on thiol of Cys92, Cys169
B39: mutant 25 (Shh C1II/A169C + S133C), 20 K PEG (ligand)
chain: not shown
modifications: 20 K PEG maleimide on thiol of Cys133, Cys169
B40: mutant 20 (Shh C1II/A169C + N68C), unmodified (ligand)
chain: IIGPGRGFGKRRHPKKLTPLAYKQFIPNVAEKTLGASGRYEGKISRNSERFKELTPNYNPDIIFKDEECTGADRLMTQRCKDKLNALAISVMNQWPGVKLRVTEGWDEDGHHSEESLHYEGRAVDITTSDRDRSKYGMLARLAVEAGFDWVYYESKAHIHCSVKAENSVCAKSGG
B41: mutant 18 (Shh C1II/A169C + N46C), 20 K PEG (ligand)
chain: not shown
modifications: 20 K PEG maleimide on thiol of Cys46, Cys169
B42: mutant 24 (Shh C1II/A169C + S112C), 5 K PEG (ligand)
chain: not shown
modifications: 5 K PEG maleimide on thiol of Cys112, Cys169
B43: mutant 19 (Shh C1II/A169C + Y57C), NEM-modified (ligand)
chain: not shown
modifications: N-ethyl maleimide on thiol of Cys57, Cys169
B44: mutant 17 (Shh C1II/A169C + N27C), 5 K PEG (ligand)
chain: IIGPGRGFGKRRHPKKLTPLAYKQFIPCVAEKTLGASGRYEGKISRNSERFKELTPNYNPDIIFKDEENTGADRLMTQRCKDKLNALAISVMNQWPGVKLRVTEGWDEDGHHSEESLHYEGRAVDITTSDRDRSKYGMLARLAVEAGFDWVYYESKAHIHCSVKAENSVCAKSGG
modifications: 5 K PEG maleimide on thiol of Cys27, Cys169
B45: mutant 18 (Shh C1II/A169C + N46C), Napth-modified (ligand)
chain: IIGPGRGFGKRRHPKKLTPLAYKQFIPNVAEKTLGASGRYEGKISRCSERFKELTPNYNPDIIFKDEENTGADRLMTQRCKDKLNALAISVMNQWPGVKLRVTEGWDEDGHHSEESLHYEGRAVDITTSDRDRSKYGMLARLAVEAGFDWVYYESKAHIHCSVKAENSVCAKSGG
modifications: N-(1-naphthyl) maleimide on thiol of Cys46, Cys169
B46: mutant 25 (Shh C1II/A169C + S133C), unmodified (ligand)
chain: not shown
B47: mutant 21 (Shh C1II/A169C + N92C), NEM-modified (ligand)
chain: not shown
modifications: N-ethyl maleimide on thiol of Cys92, Cys169
B48: mutant 19 (Shh C1II/A169C + Y57C), 5 K PEG (ligand)
chain: not shown
modifications: 5 K PEG maleimide on thiol of Cys57, Cys169
B49: mutant 20 (Shh C1II/A169C + N68C), 20 K PEG (ligand)
chain: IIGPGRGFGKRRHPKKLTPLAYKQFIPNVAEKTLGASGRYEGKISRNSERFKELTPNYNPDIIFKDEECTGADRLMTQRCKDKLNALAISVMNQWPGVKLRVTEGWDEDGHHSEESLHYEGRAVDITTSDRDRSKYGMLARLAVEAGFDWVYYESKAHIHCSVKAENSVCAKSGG
modifications: 20 K PEG maleimide on thiol of Cys68, Cys169
B50: mutant 24 (Shh C1II/A169C + S112C), NEM-modified (ligand)
chain: not shown
modifications: N-ethyl maleimide on thiol of Cys112, Cys169
B51: mutant 24 (Shh C1II/A169C + S112C), unmodified (ligand)
chain: not shown
B52: mutant 25 (Shh C1II/A169C + S133C), NEM-modified (ligand)
chain: not shown
modifications: N-ethyl maleimide on thiol of Cys133, Cys169
B53: mutant 19 (Shh C1II/A169C + Y57C), HPE-modified (ligand)
chain: not shown
modifications: beta-(4-hydroxyphenyl) ethylmaleimide on thiol of Cys57, Cys169
B54: mutant 18 (Shh C1II/A169C + N46C), NEM-modified (ligand)
chain: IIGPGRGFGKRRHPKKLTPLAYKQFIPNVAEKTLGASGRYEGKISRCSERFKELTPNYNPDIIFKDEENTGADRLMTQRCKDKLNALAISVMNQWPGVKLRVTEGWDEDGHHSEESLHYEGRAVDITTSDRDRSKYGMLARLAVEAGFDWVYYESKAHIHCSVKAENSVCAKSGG
modifications: N-ethyl maleimide on thiol of Cys46, Cys169
B55: mutant 19 (Shh C1II/A169C + Y57C), Pyrene-modified (ligand)
chain: not shown
modifications: N-(1-pyrenyl) maleimide on thiol of Cys57, Cys169
B56: mutant 21 (Shh C1II/A169C + N92C), Pyrene-modified (ligand)
chain: not shown
modifications: N-(1-pyrenyl) maleimide on thiol of Cys92, Cys169
B57: mutant 19 (Shh C1II/A169C + Y57C), 20 K PEG (ligand)
chain: not shown
modifications: 20 K PEG maleimide on thiol of Cys57, Cys169

Biological target: T1, Shh receptor molecules on C3H10T1/2 …
Assay: cell-based or functional assay

Row | Binder | Potency (IC50) in C3H10T1/2 assay (alkaline phosphatase induction) [µg/mL]
1 | B1 | 0.2
2 | B2 | > 20
3 | B3 | 8
4 | B4 | 0.5
5 | B5 | 0.25
6 | B6 | 5
7 | B7 | 0.5
8 | B8 | 2
9 | B9 | 3
10 | B10 | 0.4
11 | B11 | 0.3
12 | B12 | 1
13 | B13 | 0.3
14 | B14 | 1.5
15 | B15 | 2
16 | B16 | 0.3
17 | B17 | > 20
18 | B18 | 0.6
19 | B19 | 3

Row | Binder | Potency (IC50) in C3H10T1/2 assay (alkaline phosphatase induction) [µg/mL]
20 | B20 | 0.4
21 | B21 | 0.3
22 | B22 | 0.2
23 | B23 | 0.3
24 | B24 | 0.4
25 | B25 | 0.2
26 | B26 | 0.2
27 | B27 | 0.2
28 | B28 | 3
29 | B29 | 2
30 | B30 | 0.2
31 | B31 | 0.2
32 | B32 | 1.5
33 | B33 | 2
34 | B34 | 8
35 | B35 | 2
36 | B36 | 0.2
37 | B37 | 2
38 | B38 | 4

Row | Binder | Potency (IC50) in C3H10T1/2 assay (alkaline phosphatase induction) [µg/mL]
39 | B39 | 2
40 | B40 | 0.3
41 | B41 | 0.3
42 | B42 | 0.6
43 | B43 | 0.2
44 | B44 | 4
45 | B45 | 0.4
46 | B46 | 0.4
47 | B47 | 2
48 | B48 | 0.2
49 | B49 | 0.4
50 | B50 | 0.2
51 | B51 | 0.4
52 | B52 | 0.2
53 | B53 | 0.3
54 | B54 | 0.2
55 | B55 | 0.3
56 | B56 | 3
57 | B57 | 0.3
